Here are results for 58 variants from the FLAb antibody collection (doi:10.7554/elife.23156).

The Kd is the equilibrium constant for the complex coming apart.

Where only a bound is given, the exact number is not on record here.

Sequences and labels used below:
B1: scFv; the commonest letter at each place (parent)
chain 1: EVKLDETGGGLVQPGRPMKLSCVASGFTFSDYWMNWVRQSPEKGLEWVAQIRNKPYNYETYYSDSVKGRFTISRDDSKSSVYLQMNNLRVEDMGIYYCTGSYYGMDYWGQGTSVTVS
chain 2: DVVMTQTPLSLPVSLGDQASISCRSSQSLVHSNGNTYLRWYLQKPGQSPKVLIYKVSNRFSGVPDRFSGSGSGTDFTLKISRVEAEDLGVYFCSQSTHVPWTFGGGTKLEIK

The variants in data set [1] derive from B1. Put plainly: Kd (Tite-Seq). Particulars: with fluorescein; format: scFv 4-4-20, heavy + light.
Data set [2] covers variants of B1. Put plainly: yeast surface expression (ratio to wild type); higher = more expressed. The following applies: format: scFv 4-4-20, heavy + light.

For the variant chain 1 Y102E M105A, the Kd in data set [1] was at least 10 µM. Moreover, the yeast surface expression in data set [2] was 0.815.

As for chain 1 S30C W36G, the Kd in data set [1] was determined as 0.021 µM. The yeast surface expression in data set [2] amounted to 0.208.

Regarding chain 1 S30G N35P W36F, the Kd in data set [1] is at least 10 µM. Besides, in data set [2], the yeast surface expression came out at 0.718.

On to chain 1 F29G D31E, for which, in data set [1], the dissociation constant Kd was at least 10 µM. For the same variant, the yeast surface expression in data set [2] was 0.955.

chain 1 G100K G109V: the Kd in data set [1] was at least 10 µM. In addition, the yeast surface expression in data set [2] amounted to 0.188.

For the variant chain 1 Y32L M34A, in data set [1], the Kd is at least 10 µM. The yeast surface expression in data set [2] was found to be 0.634.

As to chain 1 Y32A, the Kd in data set [1] was found to be 0.00993 µM. Further, in data set [2], the yeast surface expression is 1.15.

As for chain 1 Y32F, in data set [1], the Kd amounted to 0.00352 µM. Further, the yeast surface expression in data set [2] was determined as 0.989.

Turning to chain 1 Y32W, in data set [1], the Kd is at least 10 µM. Besides, the yeast surface expression in data set [2] was found to be 0.805.

For chain 1 G100S D106E, the Kd in data set [1] amounted to 0.0534 µM. Moreover, the yeast surface expression in data set [2] is 1.15.

As to chain 1 S30C W33I, the Kd in data set [1] is at least 10 µM. For the same variant, the yeast surface expression in data set [2] came to 0.877.

As for chain 1 G100D G109H, the Kd in data set [1] is at least 10 µM. The yeast surface expression in data set [2] was determined as 0.602.

For the variant chain 1 F29T D31A, the Kd in data set [1] was found to be 0.345 µM. The yeast surface expression in data set [2] is 0.838.

chain 1 M34K V37W: in data set [1], the Kd is at least 10 µM. Further, in data set [2], the yeast surface expression came out at 0.494.

In the case of chain 1 S101F, in data set [1], the Kd was at least 10 µM. Also, in data set [2], the yeast surface expression turned out to be 0.596.

For the variant chain 1 F29R V37E, in data set [1], the Kd is 1.08 µM. The yeast surface expression in data set [2] is 0.545.

On to chain 1 D31A N35T V37S, for which the Kd in data set [1] was at least 10 µM. For the same variant, the yeast surface expression in data set [2] came out at 0.281.

Take chain 1 W33N V37N: the Kd in data set [1] is at least 10 µM. Further, the yeast surface expression in data set [2] was 0.652.

chain 1 S101Q D106N: the Kd in data set [1] was at least 10 µM. Further, the yeast surface expression in data set [2] came to 0.555.

For the variant chain 1 M34C, the Kd in data set [1] came out at 0.00326 µM. Moreover, the yeast surface expression in data set [2] was found to be 0.712.

For chain 1 M34Y, in data set [1], the Kd was determined as 0.0107 µM. Besides, the yeast surface expression in data set [2] turned out to be 1.05.

As for chain 1 F29Y S30D, in data set [1], the Kd is 0.0038 µM. The yeast surface expression in data set [2] was found to be 0.937.

On to chain 1 S30N V37W, for which, in data set [1], the Kd was at least 10 µM. Also, in data set [2], the yeast surface expression is 0.654.

In the case of chain 1 D31F, in data set [1], the Kd is 0.00547 µM. Further, the yeast surface expression in data set [2] was determined as 0.636.

For the variant chain 1 D31V, the Kd in data set [1] was at least 10 µM. Further, in data set [2], the yeast surface expression was determined as 0.515.

As to chain 1 F29C D31M, the Kd in data set [1] is at least 10 µM. Besides, the yeast surface expression in data set [2] was 0.669.

Consider chain 1 Y102E Y107A, for which the Kd in data set [1] is at least 10 µM. In addition, the yeast surface expression in data set [2] was 0.904.

With chain 1 M105P D106E, in data set [1], the Kd was at least 10 µM. For the same variant, the yeast surface expression in data set [2] was found to be 0.7.

Consider chain 1 G104D Y107F, for which the Kd in data set [1] is at least 10 µM. In data set [2], the yeast surface expression is 0.945.

chain 1 D31S V37H: the Kd in data set [1] stood at 9.02 µM. Moreover, the yeast surface expression in data set [2] amounted to 0.644.

Regarding chain 1 M105T G109C, the Kd in data set [1] was at least 10 µM. In addition, the yeast surface expression in data set [2] is 0.27.

As to chain 1 Y103F G109F, the Kd in data set [1] is at least 10 µM. Moreover, the yeast surface expression in data set [2] came to 0.237.

In the case of chain 1 Y103W, the dissociation constant (Kd) in data set [1] was 0.228 µM. Also, the yeast surface expression in data set [2] stood at 0.862.

On to chain 1 Y107K W108A, for which the Kd in data set [1] was at least 10 µM. For the same variant, the yeast surface expression in data set [2] was determined as 0.575.

For chain 1 G100C Y107S, in data set [1], the Kd was 2.88 µM. Moreover, the yeast surface expression in data set [2] was 0.64.

For chain 1 G100C Y107E, the Kd in data set [1] was at least 10 µM. For the same variant, the yeast surface expression in data set [2] amounted to 0.6.

Regarding chain 1 G100T Y103E, the Kd in data set [1] is at least 10 µM. Further, the yeast surface expression in data set [2] stood at 1.28.

Take chain 1 Y102H: the Kd in data set [1] was 0.004 µM. Moreover, the yeast surface expression in data set [2] is 1.17.

On to chain 1 V37L, for which the Kd in data set [1] turned out to be 1.14 µM. Further, the yeast surface expression in data set [2] was determined as 0.782.

With chain 1 G100R D106V, the Kd in data set [1] is at least 10 µM. Further, the yeast surface expression in data set [2] was determined as 0.108.

Regarding chain 1 W33E V37T, in data set [1], the Kd was at least 10 µM. Also, the yeast surface expression in data set [2] was found to be 0.486.

Take chain 1 S30Y W33L: the Kd in data set [1] was at least 10 µM. Also, the yeast surface expression in data set [2] amounted to 0.755.

chain 1 Y32Q M34I: the equilibrium dissociation constant (Kd) in data set [1] was at least 10 µM. For the same variant, in data set [2], the yeast surface expression was 0.765.

As for chain 1 F29D W33L, the Kd in data set [1] was at least 10 µM. In addition, the yeast surface expression in data set [2] was 0.795.

As for chain 1 M105I W108V, the Kd in data set [1] is 0.000724 µM. Moreover, the yeast surface expression in data set [2] was found to be 0.782.

Regarding chain 1 M105A D106V, the Kd in data set [1] is at least 10 µM. Besides, the yeast surface expression in data set [2] stood at 0.494.

chain 1 Y32V V37I: the Kd in data set [1] is at least 10 µM. Besides, the yeast surface expression in data set [2] was found to be 1.03.

Take chain 1 G100N M105Y: the Kd in data set [1] was at least 10 µM. Besides, the yeast surface expression in data set [2] came out at 0.462.

chain 1 Y32P N35Y: the Kd in data set [1] is at least 10 µM. Further, in data set [2], the yeast surface expression was determined as 0.488.

In the case of chain 1 T28S S30T W33R, the dissociation constant (Kd) in data set [1] was at least 10 µM. Also, in data set [2], the yeast surface expression worked out at 0.708.

Take chain 1 W108E G109V: in data set [1], the Kd is at least 10 µM. Besides, the yeast surface expression in data set [2] stood at 0.33.

For the variant chain 1 Y102Q Y107C, the Kd in data set [1] was at least 10 µM. Also, the yeast surface expression in data set [2] amounted to 0.353.

Take chain 1 S101H Y103N: the dissociation constant (Kd) in data set [1] was at least 10 µM. Also, in data set [2], the yeast surface expression was 0.984.

Consider chain 1 N35F V37S, for which, in data set [1], the Kd is at least 10 µM. Besides, the yeast surface expression in data set [2] was found to be 0.884.

For chain 1 G100M G109M, the Kd in data set [1] is at least 10 µM. Further, the yeast surface expression in data set [2] was determined as 0.274.

Regarding chain 1 Y102S Y107W, the Kd in data set [1] turned out to be 0.00128 µM. In addition, in data set [2], the yeast surface expression came out at 0.747.

As to chain 1 M105I D106Y, the Kd in data set [1] is at least 10 µM. In addition, the yeast surface expression in data set [2] turned out to be 0.4.

Turning to chain 1 M105C D106S, in data set [1], the Kd came to 3.37 µM. Further, the yeast surface expression in data set [2] worked out at 0.728.
